According to article PMC4108507 (Journal of immunology (Baltimore, Md. : 1950), 2014):

Biological target: HA-DHX15, full-length recombinant protein (murine, UniProt O35286 1-795)
Experiment: pull-down

Sequence of HA-DHX15, full-length recombinant protein (O35286 whole entry): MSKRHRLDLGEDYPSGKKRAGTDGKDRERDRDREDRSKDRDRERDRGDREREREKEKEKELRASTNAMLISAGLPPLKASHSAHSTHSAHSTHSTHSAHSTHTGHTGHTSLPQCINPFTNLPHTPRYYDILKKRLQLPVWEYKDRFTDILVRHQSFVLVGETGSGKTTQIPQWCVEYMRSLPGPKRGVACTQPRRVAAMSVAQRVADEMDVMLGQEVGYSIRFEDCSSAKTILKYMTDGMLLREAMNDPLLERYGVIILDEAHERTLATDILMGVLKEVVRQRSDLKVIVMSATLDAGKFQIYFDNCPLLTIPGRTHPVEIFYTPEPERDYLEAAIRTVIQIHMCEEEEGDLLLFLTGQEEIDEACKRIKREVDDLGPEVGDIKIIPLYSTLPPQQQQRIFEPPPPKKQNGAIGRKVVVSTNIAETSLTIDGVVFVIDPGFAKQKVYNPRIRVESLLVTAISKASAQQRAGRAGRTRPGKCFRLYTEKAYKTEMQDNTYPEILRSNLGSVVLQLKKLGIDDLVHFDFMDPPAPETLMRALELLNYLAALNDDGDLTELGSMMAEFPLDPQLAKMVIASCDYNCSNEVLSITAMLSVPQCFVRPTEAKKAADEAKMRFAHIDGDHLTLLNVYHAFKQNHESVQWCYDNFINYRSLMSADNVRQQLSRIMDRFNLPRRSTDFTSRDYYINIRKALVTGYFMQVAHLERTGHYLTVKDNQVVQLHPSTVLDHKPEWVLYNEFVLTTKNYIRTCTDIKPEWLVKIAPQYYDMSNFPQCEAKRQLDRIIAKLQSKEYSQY

- binding result: binds
B1: Myc-MAVS, full-length recombinant protein (natural protein, murine, UniProt Q8VCF0 1-503, looked up)
chain: MTFAEDKTYKYIRDNHSKFCCVDVLEILPYLSCLTASDQDRLRASYRQIGNRDTLWGLFNNLQRRPGWVEVFIRALQICELPGLADQVTRVYQSYLPPGTSLRSLEPLQLPDFPAAVSGPSAFAPGHNIPDHGLRETPSCPKPVQDTQPPESPVENSEQLLQTNSGAVARMSGGSLIPSPNQQALSPQPSREHQEQEPELGGAHAANVASVPIATYGPVSPTVSFQPLPRTALRTNLLSGVTVSALSADTSLSSSSTGSAFAKGAGDQAKAATCFSTTLTNSVTTSSVPSPRLVPVKTMSSKLPLSSKSTAAMTSTVLTNTAPSKLPSNSVYAGTVPSRVPASVAKAPANTIPPERNSKQAKETPEGPATKVTTGGNQTGPNSSIRSLHSGPEMSKPGVLVSQLDEPFSACSVDLAISPSSSLVSEPNHGPEENEYSSFRIQVDESPSADLLGSPEPLATQQPQEEEEHCASSMPWAKWLGATSALLAVFLAVMLYRSRRLAQ
